Earlier results as cited in publication PMC7364852.

Molecular target: Spike RBD (SARS-CoV-2) (UniProt P0DTC2)

Substance: SBP1 (from UniProt Q9BYF1)
- Kd: 47 nM
